Results as given in IntAct's records for PubMed 29039417.

B1: BBSome complex member BBS4 (Homo sapiens), Q96RK4 (parent)
chain: MAEERVATRTQFPVSTESQKPRQKKAPEFPILEKQNWLIHLHYIRKDYEACKAVIKEQLQETQGLCEYAIYVQALIFRLEGNIQESLELFQTCAVLSPQSADNLKQVARSLFLLGKHKAAIEVYNEAAKLNQKDWEISHNLGVCYIYLKQFNKAQDQLHNALNLNRHDLTYIMLGKIHLLEGDLDKAIEVYKKAVEFSPENTELLTTLGLLYLQLGIYQKAFEHLGNALTYDPTNYKAILAAGSMMQTHGDFDVALTKYRVVACAVPESPPLWNNIGMCFFGKKKYVAAISCLKRANYLAPFDWKILYNLGLVHLTMQQYASAFHFLSAAINFQPKMGELYMLLAVALTNLEDIENAKRAYAEAVHLDKCNPLVNLNYAVLLYNQGEKKNALAQYQEMEKKVSLLKDNSSLEFDSEMVEMAQKLGAALQVGEALVWTKPVKDPKSKHQTTSTSKPASFQQPLGSNQALGQAMSSAAAYRTLPSGAGGTSQFTKPPSLPLEPEPAVESSPTETSEQIREK
partner: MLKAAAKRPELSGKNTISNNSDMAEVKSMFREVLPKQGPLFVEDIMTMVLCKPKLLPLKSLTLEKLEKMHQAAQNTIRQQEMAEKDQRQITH

Variants of: B1
Conditions: with bbip1_human BBIP1, A8MTZ0

Variant	effect of a mutation on the interaction
A329E	with no effect
A329K	with no effect
E363G	disrupting interaction strength
E363A	with no effect
E363K	with no effect
A345K	with no effect
A345V	disrupting interaction strength
A345T	disrupting interaction strength
A345E	with no effect
Y341D	disrupting interaction strength
Y341A	disrupting interaction strength
Y341C	disrupting interaction strength
Y341E	with no effect
Y341K	with no effect
E355A	with no effect
E355K	with no effect
H366K	with no effect
H366A	with no effect
H366E	with no effect
A357E	with no effect
A357K	with no effect
A357V	disrupting interaction strength
K369E	with no effect
K369A	with no effect

Variant	effect of a mutation on the interaction
P372A	with no effect
P372E	with no effect
P372K	with no effect
P372L	disrupting interaction strength
P372S	disrupting interaction strength
R359K	with no effect
R359E	with no effect
R359A	with no effect
E339K	with no effect
E339A	with no effect
M342K	disrupting interaction strength
M342W	disrupting interaction strength
M342E	with no effect
M342A	with no effect
M342T	disrupting interaction strength
M342R	disrupting interaction strength
M342V	disrupting interaction strength
A360E	with no effect
A360K	with no effect
N371E	with no effect
N371K	with no effect
N371A	with no effect
V365E	with no effect
V365A	with no effect

Variant	effect of a mutation on the interaction
V365K	with no effect
N350D	disrupting interaction strength
N350E	with no effect
N350A	with no effect
N350K	with no effect
A347D	disrupting interaction strength
A347K	with no effect
A347E	with no effect
L344E	with no effect
L344A	with no effect
L344K	with no effect
N356A	with no effect
N356K	with no effect
N356E	with no effect
E352K	with no effect
E352A	with no effect
Q334A	with no effect
Q334D	disrupting interaction strength
Q334K	with no effect
Q334E	with no effect
L367P	disrupting interaction strength
L367E	with no effect
L367K	with no effect
L367A	with no effect

Variant	effect of a mutation on the interaction
A330V	disrupting interaction strength
A330E	with no effect
A330F	disrupting interaction strength
A330K	with no effect
A364T	disrupting interaction strength
A364K	with no effect
A364E	with no effect
A364V	disrupting interaction strength
G338A	with no effect
G338R	disrupting interaction strength
G338K	with no effect
G338E	disrupting interaction strength
L343H	disrupting interaction strength
L343P	disrupting interaction strength
L343K	with no effect
L343E	with no effect
L343A	with no effect
L343T	disrupting interaction strength
L343R	disrupting interaction strength
L340E	with no effect
L340F	disrupting interaction strength
L340K	with no effect
L340A	with no effect
D368E	with no effect

Variant	effect of a mutation on the interaction
D368A	with no effect
D368K	with no effect
D368G	disrupting interaction strength
T349A	with no effect
T349E	with no effect
T349K	with no effect
K358E	with no effect
K358A	with no effect
M337A	with no effect
M337K	with no effect
M337E	with no effect
N375A	with no effect
V346A	disrupting interaction strength
V346E	disrupting interaction strength
V346K	with no effect
Y361E	with no effect
Y361K	with no effect
Y361A	with no effect
Y361C	disrupting interaction strength
A362K	with no effect
A362E	with no effect
V374E	with no effect
V374A	with no effect
V374K	with no effect

Variant	effect of a mutation on the interaction
L348T	disrupting interaction strength
L348A	with no effect
L348R	disrupting interaction strength
L348P	disrupting interaction strength
L348E	with no effect
L348K	with no effect
I331K	with no effect
I331F	disrupting interaction strength
I331E	with no effect
I331A	with no effect
L373K	with no effect
L373E	with no effect
L373A	with no effect
L373S	disrupting interaction strength
L327T	disrupting interaction strength
F333E	with no effect
F333K	with no effect
F333A	with no effect
K336E	with no effect
K336A	with no effect
L351P	disrupting interaction strength
L351E	with no effect
L351K	with no effect
L351A	with no effect

Variant	effect of a mutation on the interaction
N332A	with no effect
N332Y	disrupting interaction strength
N332F	disrupting interaction strength
N332I	disrupting interaction strength
N332K	with no effect
N332E	with no effect
D353A	with no effect
D353G	disrupting interaction strength
D353K	with no effect
D353E	with no effect
P335A	with no effect
P335E	with no effect
P335K	with no effect
P335T	disrupting interaction strength
C370A	with no effect
C370K	with no effect
C370E	with no effect
S328E	with no effect
S328A	with no effect
S328K	with no effect
